Results reported in US20250339570A1.

These substances were tested against CD46 (UniProt P15529) (assay: magnetic bead radioligand binding assay; CD46 on Ni-NTA beads, 10 ng radioimmunoconjugate, bead activity/standard).

Row | target binding fraction [%] | Substance
1 | > 75 | 225Ac-Macropa-PEG4-YS5 (antibody)
2 | > 75 | 225Ac-Macropa-PEG0-YS5 (antibody)
3 | > 75 | 225Ac-Macropa-PEG8-YS5 (antibody)
